Source: paper PMC12588282 (Science Advances, 2025)
Values joined by “and” are separate entries in the source; they are usually repeats but may differ in a detail not shown here. Identical values can stand only once.

How the values were obtained:
[1] = target: Fc region of the Xenopus laevis IgX heavy chain (Cχ2, Cχ3, Cχ4 and χtp) (Xenopus laevis); test: 2D cryo-EM classification
[2] = target: Fragment of Fcχ consisting of Cχ3, Cχ4 and χtp (Xenopus laevis); test: cryo-EM structure
[3] = target: Fragment of Fcχ consisting of Cχ3, Cχ4 and χtp (Xenopus laevis); test: 2D cryo-EM classification
[4] = target: Human Fcμ variant with the tailpiece truncated to 13 residues (human); test: native gel or EMSA
[5] = target: Human Fcμ variant with the tailpiece truncated to 13 residues (human); test: 2D cryo-EM classification
[6] = target: Human Fcμ variant with the tailpiece truncated to 14 residues (human); test: native gel or EMSA
[7] = target: Human Fcμ variant with the tailpiece truncated to 14 residues (human); test: 2D cryo-EM classification
[8] = target: Human Fcμ variant with the tailpiece truncated to 15 residues (human); test: native gel or EMSA
[9] = target: Human Fcμ variant with the tailpiece truncated to 15 residues (human); test: 2D cryo-EM classification
[10] = target: Human Fcμ variant with the tailpiece truncated to 16 residues (human); test: native gel or EMSA
[11] = target: Human Fcμ variant with the tailpiece truncated to 16 residues (human); test: 2D cryo-EM classification
[12] = target: Human Fcμ variant with the tailpiece truncated to 17 residues (human); test: 2D cryo-EM classification
[13] = target: Recombinant human Fcμ with an intact 18-amino acid tailpiece (human); test: AUC
[14] = target: Recombinant human Fcμ with an intact 18-amino acid tailpiece (human); test: 2D cryo-EM classification
[15] = target: the molecule itself; test: 2D cryo-EM classification
AUC = target: the molecule itself; test: AUC

Fc region of the Xenopus laevis IgX heavy chain (Cχ2, Cχ3, Cχ4 and χtp) (domain or fragment)
stoichiometry N [1]: 6

Fragment of Fcχ consisting of Cχ3, Cχ4 and χtp (domain or fragment)
stoichiometry N [2]: 6 | stoichiometry N [3]: 6

Human Fcμ variant with the tailpiece truncated to 13 residues (domain or fragment)
stoichiometry N [4]: 6 | stoichiometry N [5]: 6

Human Fcμ variant with the tailpiece truncated to 14 residues (domain or fragment)
stoichiometry N [6]: 6 | stoichiometry N [7]: 6

Human Fcμ variant with the tailpiece truncated to 15 residues (domain or fragment)
stoichiometry N [8]: 6 | stoichiometry N [9]: 6

Human Fcμ variant with the tailpiece truncated to 16 residues (domain or fragment)
stoichiometry N [10]: 6 | stoichiometry N [11]: 6

Human Fcμ variant with the tailpiece truncated to 17 residues (domain or fragment)
stoichiometry N [12]: 6 and 5

Recombinant human Fcμ with an intact 18-amino acid tailpiece (domain or fragment)
stoichiometry N [13]: 4 and 5 and 6 | stoichiometry N [14]: 6 and 4 and 5

B1: Human Fcμ variant with the tailpiece truncated to 12 residues (domain or fragment)
chain: IAELPPKVSVFVPPRDGFFGNPRKSKLICQATGFSPRQIQVSWLREGKQVGSGVTTDQVQAEAKESGPTTYKVTSTLTIKESDWLGQSMFTCRVDHRGLTFQQNASSMCVPDQDTAIRVFAIPPSFASIFLTKSTKLTCLVTDLTTYDSVTISWTRQNGEAVKTHTNISESHPNATFSAVGEASICEDDWNSGERFTCTVTHTDLPSPLKQTISRPKGVALHRPDVYLLPPAREQLNLRESATITCLVTGFSPADVFVQWMQRGQPLSPEKYVTSAPMPEPQAPGRYFAHSILTVSEEEWNTGETYTCVVAHEALPNRVTERTVDKSTGKPTLYNVSLVMSD
stoichiometry N [15]: 6

B2: Human Fcμ variant with the tailpiece truncated to 11 residues (domain or fragment)
chain: IAELPPKVSVFVPPRDGFFGNPRKSKLICQATGFSPRQIQVSWLREGKQVGSGVTTDQVQAEAKESGPTTYKVTSTLTIKESDWLGQSMFTCRVDHRGLTFQQNASSMCVPDQDTAIRVFAIPPSFASIFLTKSTKLTCLVTDLTTYDSVTISWTRQNGEAVKTHTNISESHPNATFSAVGEASICEDDWNSGERFTCTVTHTDLPSPLKQTISRPKGVALHRPDVYLLPPAREQLNLRESATITCLVTGFSPADVFVQWMQRGQPLSPEKYVTSAPMPEPQAPGRYFAHSILTVSEEEWNTGETYTCVVAHEALPNRVTERTVDKSTGKPTLYNVSLVMS
modifications: glycosylation at Asn563
stoichiometry N (AUC): 6

B3: Human Fcμ variant with the tailpiece truncated to 10 residues (domain or fragment)
chain: IAELPPKVSVFVPPRDGFFGNPRKSKLICQATGFSPRQIQVSWLREGKQVGSGVTTDQVQAEAKESGPTTYKVTSTLTIKESDWLGQSMFTCRVDHRGLTFQQNASSMCVPDQDTAIRVFAIPPSFASIFLTKSTKLTCLVTDLTTYDSVTISWTRQNGEAVKTHTNISESHPNATFSAVGEASICEDDWNSGERFTCTVTHTDLPSPLKQTISRPKGVALHRPDVYLLPPAREQLNLRESATITCLVTGFSPADVFVQWMQRGQPLSPEKYVTSAPMPEPQAPGRYFAHSILTVSEEEWNTGETYTCVVAHEALPNRVTERTVDKSTGKPTLYNVSLVM
stoichiometry N [15]: 6 and 4
